assay: yeast display, Sf9 membrane polyspecificity reagent, FACS + sequencing; frameworks hold sequencing errors
Outline: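 Polyreactivity labels are assigned by the sorting gate from which each nanobody was recovered. The gates were low and high (top ~1%), set on anti-HA fluorescence for expression and streptavidin fluorescence for reagent binding. Before sorting, galactose-induced (36–48 hours) yeast display cells were stained for 1 hour at 4 °C with 10% biotinylated, detergent-solubilized Sf9 membrane reagent.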

Sequence | polyreactivity (PSR sort gate)
QVQLVESGGGLVQAGGSLRLSCAASGRIFGYYGMGWYRQAPGNERELVAAITYRGGSTYYADSVKGRFTISRDNAKNTVYLQMNSLKPEDTVVYYCGADGYSNYRYLYDYWGQGTQVTVSS | low polyreactivity
QVQLVESGGGLVQAGGSLRLSCAASGRIFGYYMGWYRQAPGKERELVARITFRGGSTYYADSVKGRFTISRDNAKNTVYLQMNSLKPEDTAVYYCNASGKGGSTNRSDYWGQGTQVTVSW | high polyreactivity
QVQLVESGGGLVQAGGSLRLSCAASGRIFGYYTMGWYRQAPGKERELVAAITRDGGSTYYADSVKGRFTISRDNAKNTVYLQMNSLKPEDTAVDYCTAASQSRYYYWGQGTQVTVSS | high polyreactivity
QVQLVESGGGLVQAGGSLRLSCAASGRIFGYYTMGWYRQAPGKEWEVVAGISSGGSTNYADSVKGRFTISRDNAKNTVYLQMNSLKPEDTAVYDCAAAYPHFGGYRYDYWGQGTQVTVSS | high polyreactivity
QVQLVESGGGLVQAGGSLRLSCAASGRIFHFNTMGWYRQAPGKERELVAAITSSGGSTNYADSVKGRFTISRDNAKNTVYLQMNSLKPEDTAVYYCNADTGAADYFDFDYWGQGTQVTVSS | low polyreactivity
QVQLVESGGGLVQAGGSLRLSCAASGRIFHLYAMGWYRQAPGKERELVATINYEGGSTYYADSVKGRFTISRDNAKDTVYLQMNSLKPEDTAVYYCAADGYQDKYYWLETWVGYWGQGTQVTVSS | low polyreactivity
QVQLVESGGGLVQAGGSLRLSCAASGRIFHPNAMGWYRQAPGKERELVAAITNSGGITYADSVKGRFTISRDNAKNTVYLQMNSLKPEDTAVYYCNTATNRFHYKYRKPYDYWGQGTQVTVSS | low polyreactivity
QVQLVESGGGLVQAGGSLRLSCAASGRIFHQYAMGWYRQAPGKERELVAAITGGGSTYYADSVKGRFTISRDNAKNTVSLQMNSLKPEDTAVYYCAAPPFGYYEVGYDSWGQGTQVTVSS | low polyreactivity
QVQLVESGGGLVQAGGSLRLSCAASGRIFHRYDMGWDRQAPGKEREFVAAISSRGGSTYYADSVKGRVTISRDYAKNTVYLQMNSLKPEDTAVYYCAAQNGYRSGEFYYWGQGTQVTVSP | high polyreactivity
QVQLVESGGGLVQAGGSLRLSCAASGRIFHTYGMGWYRQAPGKERELVAAITWTGGSTYYADSVKGRFTISRDNAKNTVYLQMNSLKPEDTAVYYCAADYPRDIIGSMDYWGQGTQVTVSS | low polyreactivity
QVQLVESGGGLVQAGGSLRLSCAASGRIFHTYGMGWYRQAPGKVRELVAAITWTGGSTYYADSVKGRFTISRDNAKNTVYLQMNSLKPEDTAVYYCNARYVYHSSFAGFDYWGQGTQVTVSS | low polyreactivity
QVQLVESGGGLVQAGGSLRLSCAASGRIFHVNAMGWYRQAPGKERELVAAISTSGGRTYYADSVKGRFTISRDNAKNTVYLQLNSLKPEVTAVYYCAAVSRAPGLRYDYWGQGTQVTVSS | high polyreactivity
QVQLVESGGGLVQAGGSLRLSCAASGRIFHYNAMGWYRQAPGKERELVAAISTGGSTNYADSVKGRFTISRDNAKNTVYLQMNSLKPEDTAVYYCAADHPVTYPTTKFDYWGQGTQVTVSS | low polyreactivity
QVQLVESGGGLVQAGGSLRLSCAASGRIFHYYAMGWYRQAPGIERELVAAIRYSGGRTYYADSVKGRFTISRDNAKNTVYLQMNSLKPEDTAFYYCNAVPYVYKTITGDDYWGQGTQVTVSS | high polyreactivity
QVQLVESGGGLVQAGGSLRLSCAASGRIFHYYAMGWYRQAPGKEWELVAAISTSGGSTYYADSVKGRFTISRDNANNTVYIQMNSLKPEDTAVYYCAAVLPRYRRFDYWGQGTQVTVSS | high polyreactivity
QVQLVESGGGLVQAGGSLRLSCAASGRIFIGYAMGWYRQAPGKERELVAGISQRGGRTYYADSVKGRFTISRDNAKNTVYLQMNSLKPEDTAVYYCNKRFSLGYRGGYWGQGTQVTVSS | high polyreactivity

Sequence | polyreactivity (PSR sort gate)
QVQLVESGGGLVQAGGSLRLSCAASGRIFINNAMGWYRQAPGKEREFVAAITSGGRTYYADSVKGRFTISRDNAKNTVYLQMNSLKPEDTAVYYCAARYYRQYTRHYGYGYWGQGTQVTVSS | high polyreactivity
QVQLVESGGGLVQAGGSLRLSCAASGRIFIPYALGWYRQAPGKERELVAAISYRGGSTYYADSVKGRFTISRDNAKNTVYLQMNSLKPEDTAVYYCANYDYWGQGTQVTVSS | high polyreactivity
QVQLVESGGGLVQAGGSLRLSCAASGRIFIRNAMGWYRQAPGKERELVAAITQSGGSTYYADSVKGRFTISRDNAKNTVYLQMNSLKPEDTAVYYCAADGDNPYLHEEDYWGQGTQVTVSS | high polyreactivity
QVQLVESGGGLVQAGGSLRLSCAASGRIFIRNAMGWYRQAPGTERELVAAITSDGITYYADSVKGRFTISRDNATNTVYLQMNSLKPEDTAVYYCAKVGGWFSNLFIPRYREYNYWGQGTQVTVSP | low polyreactivity
QVQLVESGGGLVQAGGSLRLSCAASGRIFIRNTMVWYRQAPGKERELVADISWRGGSTYYADSVKGRFTISRDNAKNTVYLEMNSLKPEDTAVYYSAAVVRSPAYDYWGQGTQVTVSS | high polyreactivity
QVQLVESGGGLVQAGGSLRLSCAASGRIFIRYAMGWYRQAPGKERELVASISRNGGTTYYADSVKGRFTISRDNAQNTVYLQMNSLKPEDTAVYYCNTVHRSVDKAGYDYWGQGTQVTVSS | high polyreactivity
QVQLVESGGGLVQAGGSLRLSCAASGRIFISYTMGLYRHAPGKERELVAGIDSSGTSTYYADSVKGRFTISRDNAKNTVYLQMNRLKPEDTAVYYCIVVANWKDTSTELDYWGQGTQVTVSS | low polyreactivity
QVQLVESGGGLVQAGGSLRLSCAASGRIFIYNAMGWYRQAPGKEREFVAAISSSGGSTYYADSVKGRFTISRDNAKNTVYLQMNSLKPEDTAVYYCAAGGWPYSGGLFFQPNYDYWGQGTQVTVSS | low polyreactivity
QVQLVESGGGLVQAGGSLRLSCAASGRIFIYNVMGWYRQAPGKERELVATISTGGTTNYADSVKGRFTISRDNAKNTVYLQMNSLKPEDTAVYYCNRGSGYWYLPAVKYDHWGQGTQVTVSS | low polyreactivity
QVQLVESGGGLVQAGGSLRLSCAASGRIFIYYTMGWYRQAPGKEREFVAAITYSGGSTRYADSVKGRFTISRDNAKNTVYLQMNSLKPEDTAVYYCAAKFSVRRGFDYWGQGTQVTVSS | low polyreactivity
QVQLVESGGGLVQAGGSLRLSCAASGRIFKAYAMGWSRQAPGKERELVAAITSTGSTYYADSVKGRFTISRDNAKNTVYLQMNSLKPEDTAVYYCNAVRYLEYDWGQGTQVTVSS | high polyreactivity
QVQLVESGGGLVQAGGSLRLSCAASGRIFKGYAIGWYRLAPGKERELVASITWRGGTTYYADSVKGRFTISRDNAKNTVYLQMNSLKPEDTAVYYCATTRYPRSYQEFGYWGQGTQVTVSS | high polyreactivity
QVQLVESGGGLVQAGGSLRLSCAASGRIFKIYAMGWYRQAPGKERELVASISWSGGRTYYADSVKGRFTISRDNAKNTVYLQMNSLKPEDTAVYYCAATFSYSSYIYDYWGQGTQVTVSS | high polyreactivity
QVQLVESGGGLVQAGGSLRLSCAASGRIFKIYAMGWYRQAQGKERELVAAISRGVRTYYADSVKGRFTISRDNAKNTVYLQMNSLKPEDTAVYYCAADLLISPEFYYWGQGTQVTVSS | high polyreactivity
QVQLVESGGGLVQAGGSLRLSCAASGRIFKKNAMGWYRQAPGKERELVADINWTGGSTYYADSVKGRFTISRDYAKNTVDLQMNSLKPEDTAVYYCAVGVYPSYRGTTFSTRRDYWGQGTQVTVSS | low polyreactivity
QVQLVESGGGLVQAGGSLRLSCAASGRIFKLYAMGWYRQAPGKERELVAAITRRGGSTSYADSVKGRFTISRDNAKNTVYLQMNSLKPEDTAVYYCNARSSETWHGDYWGQGTQVTVSS | high polyreactivity
